Experiment: soluble on expression in E. coli; label from the status in PepcDB or PDB records

Soluble on expression in E. coli, not soluble:
MGSDKIHHHHHHMKYSLGPVLYYWPKETLEDFYQQAANCSADTIYLGEAVCSKRRATKVGDWIEMAKTLAASGKQIVLSTLALVQASSELGELKRYVDNGEFLIEASDLGVVNLCAERKLPFVAGHALNCYNAVTLRLLRKQGMVRWCMPVELSRDWLANLLTQCEELGIRNQFEVEVLSYGHLPLAYSARCFTARSEDRPKDECETCCIKYPTGRSMLSQENQQVFVLNGIQTMSGYVYNLGNELTSMHGLVDMVRLSPMGNETFAMLEAFRANENGAAPLDLTSNSDCNGYWKRLPGLVLHA, MGSDKIHHHHHHMKYVVVSGGVISGIGKGVLASSTGMLMKTLGLKVTSIKIDPYMNIDAGTMSPLEHGECFVLDDGGETDLDLGNYERYLGVTLTKDHNITTGKIYSHVIAKERKGDYLGKTVQIVPHLTNAIQDWIERVAKIPVDDTGMEPDVCIIELGGTVGDIESAPFVEALRQFQFKVGKENFALIHVSLVPVIHGEQKTKPTQAAIKGLRSLGLVPDMIACRCSETLDKPTIDKIAMFCHVGPEQVVNVHDVNSTYHVPLLLLEQKMIDYLHARLKLDEISLTEEEKQRGLELLSKWKATTGNFDESMETVKIALVGKYTNLKDSYLSVIKALEHSSMKCRRKLDIKWVEATDLEPEAQESNKTKFHEAWNMVSTADGILIPGGFGVRGTEGMVLAARWARENHIPFLGVCLGLQIATIEFTRSVLGRKDSHSAEFYPDIDEKNHVVVFMPEIDKETMGGSMRLGLRPTFFQNETEWSQIKKLYGDVSEVHERHRHRYEINPKMVDELENNGLIFVGKDDTGKRCEILELKNHPYYIATQYHPEYTSKVLDPSKPFLGLVAASAGILQDVIEGKYDLEAGENKFNF, MGSDKIHHHHHHMLANQNVRARVQNHQLFSSLNEAQLAKIFATASLLHIKPEQMLFHQGELASRFYFVLAGTLQLFRTNVQGQMKVIEVVRSGCTFAEALMFNKQTRFPVSAQSVSECALVSFDSETYLQLLKHNPDACIAIMADLSVRIRKHINEVEMVSLQNAQHRLLLFLLRKMTVVGDNQGEITLDIPKRLLASRLSIQPETFSRLIKKMSQTGLIAESHGVIRIPDVALLYASTDISITQPTFNQQGPSSAIPLVCN, MGSDKIHHHHHHMLDENFEALRREATAWIVRITSGTATTEDAEALLRWRSRSDAHEQAFQQSARLWKNLGSALGETRKTSASTVTRRSFIAAGSVAAGAAGVGVVLSELGFLPSVDAMLADYATGVGEQRTVELVDGSTAILDGGTTLSLDYSPSSRHLVLTSGAAVFDVVHDAARPFVVTAANGDTTATGTSFSVKHGEEDVSIECLEGHITVQCLGDSQLNGGEGISYSRAGLGKKVAADIETAAAWRRGLLIFEDRPLADVVSDLNRHRRGRVVIASSDLRSRRMSGVFHLNRPDEILAHLEETLQVRPVSLVGGIVLLR, MGSDKIHHHHHHMLDFNHQPSIAERINALIDSGLIADRDATPPRAYLGGSRLGHSCERALQFEFAGAPKDSGADFNGQTLRIFAIGHALEDVAIRWLRRAGFDIYTRKGNRPDGEQFGFSVAGGQVRGHVDGILADGPVIPGMGYPALWECKTMNAKNWRETVAKGVTVSKPVYAAQIALYQAYMEGTVPGISANPALFTAINKDTAELHHELVSFDGELAQRISDRAVRILQATDAGELLPRMSSDPDYFECRFCPWKTRCWA, MGSDKIHHHHHHMLDIKYYVLIDAIATHGTVHDAAAAIGITQPAATHRIREMERRLGVALFHREGRRLTLSASGERLLDTAHAVLPQLRNAELEAWQLARRAEPALRLGIGPYDTFSRAIPHLYDQHERDIDLVRLPMADMTTALLANRVDMICMIEVPSQRGIAHQLLFEEPLVAVLPPDHPDAQSDTIPAEVFDRGRHFTYSITPESGHEFEHFFQPAGVYPSHMVQIESVALILELVAAGKGVSILSRWAARDAHQAGHVVMRPLAGDIPRIPWYLAYTQTPHIAAVAEPLADTLRHLYRADE, MGSDKIHHHHHHMLDNSIPTDSCLVSGATVSTDIETLYCNHHDWLQVWLRRRLSSAVDASDLAHDTFVRVLVSGRMPNAEQSRAFLTQIAKGLAVDLYRRRAIEEAYLAALAQLPENLAPSAEERVLALQVLLLLDTALGSLPSRVREVFLLSRLDGLTYSDIAQRRGISVATVRKYMLRAAQACHCVLNSPTGTAP, MGSDKIHHHHHHMLEIVAFRGDEYGLSARILADFLDEFRIHEMSPDNFNGKEEIENDFIIVCNPKLLTENFLRQAYEYSRDRGIYFGVISALSIDLLREKLANYQEQISLDPQQYLIILRKENKSIKHRLNAEVFTRYESTVDNFDRVKHKKLCLSMVIDGNRRHLHLSDGKICGINRDIPLEEIYRYFPDCQNCEYERVYAQDVQAECIFMDSCSSTLISTSEKGEYINVGMNFLKNAKVLISSYRPKQGYNSEALLFHHLISHGFEAGEVLYILNTNSYNHCSDYLPYILYGFPNAKVTIPEKLEVDRLRMGKSEIVLEIDRIAGMRLLEIHAGEDILNEVLKRQFYVFSSDEIRKDVFYSVIPYPLKNSIKLFLYSWEEVNGPLRIVFGVGKRLREDVYSKRYFNMRKLELLGFRHKKIQNQVHDYFSKINEQTEVLDEANRNLKNFDLHRLSKNLSAVEERIYNLLADHLLSQNPKFFIEVYGENMTVRCAEEDLHKTIRCPYCGNYLSIKESENTLVPMKRYSGFCSNCHNVFDTESVHPPKYPEIVLVHEQPDRKIFYVKVWNENAHTTNNLVCFNLWCENRSEMENIYLSRDFQVFTLEPGGEEKFEVEVALKRTDQRINKTYCLYVYWFEDFNLSVSTYTFRLKNV, MGSDKIHHHHHHMLELGQTPNAAPDAAPADLIKDTTDATFMADVVDASQTTPVIVDFWAPWCGPCKTLGPQLEAAVTAAKGKVRMVKVNVDENQQIAAQLRVQSIPMVYAFVDGQPIDGFQGAVPESQIKDFVTKLAAMSKEDGGLAEALEAAEEMLSMGEHDDAAQTFAAILGEEPENAAAMGGLARAHLAMGQVDEAEQLLSTAPDAIFNAPELEAVRAQIELARQAESAGPLAELQAAVDANPDDHAARFELAQALHANGDVEQAVDQLLELFRRDREWEDAKAKTQLFTIFDALPPQDPIALTGRRRLSSMIFA, MGSDKIHHHHHHMLFCSMNAVRNWYILPVFFITSFISKGQNGALIPDTYDQFFQNYYLINPANTDTAGVILHMGHKSQLGVFRGVRQTYFDANFRIQSNRFNRAHSVGIQLFNNSEGDFFSKNRIYGRYAFDIHLSETYFLSAGIAVGAVSYAFKATQSSAGGSDLAYDGSTGLWVVGRKLKAGISIQQISQGKLSPLGQIFELRRQYNANVSYLFFINPDIQLTTHVWYKYQQHNMHDVQVAAIITLQNLVEFGGNYKYQKGVVLIGGLKDIHIGTSSLSLAMSYSTGILNYLAKGDNAVEVFLTYSR, MGSDKIHHHHHHMLGRTANGLYWMFRYIERAENSARLIDAGLRMSLTRSEAAEDDWDGVLQSADVRELYDQVHEGLTSGDAIDFLLRDRTNPSSVMSCIEAGRNNARMVRTALTRETWEAINECWIEMKGILARRAKTTDMPEIIDTIKRRAGLIRGAFHGTMLRNEIFNFSRIGTFIERADNTARILDVKYYVLLPAVSAVGSSMDNVQWESILRSVSAHRSYGWVYDAELRPANIADFLIANGRMPRSLAYCYDKLVSNLGYLAREYGERHAAHETAEQTLGLLRSQSIAEIMDQGLHQYLKEFINQNNRLGREISDGYRFYQ, MGSDKIHHHHHHMLHKNDYRLGIDVGGTNTDAAILDADLRCIATAKFPTSMDIYSGIERVIAAVLAQSGIEPQHICYAMLGTTQCTNAIVERKGLDRVGLLRLSLPSSDSVPPLFGWDDEWQKTLGEHFYQLHGGYEFDGREIHPVLLNEVLAVCDTMRGHVDSVAICGVFSPVNNDQELQVAQWVNAALPDVSLSLSHRIGSTGLLERENATILNASLQSTANRFVNGFIQALVRHGIKATPFFGQNDGTLMSESMVKQYPILTMACGPTNSIRGACHLSGLDNALIIDVGGTTTDIGVLVNGFPRESAIAVEVGDVRTNFRMPDIISIGIGGGTCVRQSQNGTLTLGPDSVGYRLLEQSVSFGGETLTLNDIMLQLQRERWTSSLSHSLPELDKALCLEAYRQMIDKVESAIDRIKSSSAAIPAVLVGGGSILLPDVLSGVSQVMRPQNFDAANAVGVALGKVGAQIERVVKMSDNDREKIKSELQQQTICLAEETGAMPGSVEIIDYQEIPLAYLPGNAVQVKIKAAGNLA

From the DeepSol protein solubility set
